# From publication PMC7896505, “Expression, purification, crystallization and preliminary X-ray crystallographic studies of a mitochondrial membrane-associated protein Cbs2 from Saccharomyces cerevisiae” (PeerJ, 2021)
# B1: Cbs2 from Saccharomyces cerevisiae (natural protein, S. cerevisiae, UniProt P14905 1-389, looked up)
# chain: MSSSIPRVYSLGNSAMTYLLALRIAQLPSQPKVPSVVLLLNDQKKLNRFLNNDSKIIVKSSNNNKETYHRQFMASCVPPILSNGEIAPIENLIVSDPSSKFITAQLSKYNKSLRPETNILFLNPSLNLLEHLHRYRWRFDEARPNLFMGFTTPVDVGTIHQEFQLSLKVKGRIQFHIAKIDGFPRMSSTGKSASLSLRGDRQKNEKENNAFYKLFREISRLRSGIGSDLVSFDLHVHGFQDLFFTELEKLILESCTEPLLAVYDCVYKKELLKIPGAQDIIKKLISEQLSIIDRSYPSLNTNPNYSVIFDKERIFSLVMRDLEVNGHKRAKLAQSLNQLNQTNINELNGFFVSLGKYKKCNCKWNDILLTLIKGKQFITKQKALDYHYL
# notes: 389 amino acids; The selenomethionine derivative (Se-Cbs2) was used only for crystallization; also called recombinant Cbs2; Cbs2-His tag; source: E. coli C43 (DE3), purified (Ni-NTA, Hitrap Q anion exchange, Superdex 200 gel filtration)
# Target: the molecule itself
# Experiment: SEC; Superdex 200 10/300 in buffer G (20 mM Tris-HCl pH 7.5, 100 mM NaCl, 2 mM DTT); molecular weight from a calibration curve (Gel Filtration Calibration Kits HMW and LMW); peak at approximately 90 KDa against about 44 KDa on SDS-PAGE
protein,measurement,value
B1,stoichiometry N,2
